The results in this text go back to patent US20260250421A1 (BIOCYTOGEN PHARMACEUTICALS BEIJING, published 2026).

T1: His-tagged human PTK7 protein (human, UniProt Q13308 31-704)
T1 construct: Bought protein; also called hPTK7-His; not shown: His tag
T1 sequence: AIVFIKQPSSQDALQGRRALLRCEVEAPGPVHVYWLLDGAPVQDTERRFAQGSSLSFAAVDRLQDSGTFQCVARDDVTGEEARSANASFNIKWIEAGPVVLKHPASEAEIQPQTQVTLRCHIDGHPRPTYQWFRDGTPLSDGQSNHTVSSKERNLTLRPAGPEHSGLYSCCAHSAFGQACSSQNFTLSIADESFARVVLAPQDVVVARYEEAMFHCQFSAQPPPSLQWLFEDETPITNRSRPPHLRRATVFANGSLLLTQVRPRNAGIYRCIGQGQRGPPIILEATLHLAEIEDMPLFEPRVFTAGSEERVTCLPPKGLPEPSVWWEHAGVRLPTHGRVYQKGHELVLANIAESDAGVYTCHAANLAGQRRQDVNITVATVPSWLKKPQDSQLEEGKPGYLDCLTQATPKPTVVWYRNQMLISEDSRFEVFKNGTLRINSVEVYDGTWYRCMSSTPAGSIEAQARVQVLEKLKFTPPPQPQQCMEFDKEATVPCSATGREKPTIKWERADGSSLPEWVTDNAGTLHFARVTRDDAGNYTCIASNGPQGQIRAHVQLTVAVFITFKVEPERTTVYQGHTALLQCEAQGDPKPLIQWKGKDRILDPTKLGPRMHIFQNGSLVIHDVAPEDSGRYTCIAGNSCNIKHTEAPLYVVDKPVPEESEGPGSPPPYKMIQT

T2: His-tagged cynomolgus monkey PTK7 protein (cynomolgus monkey, UniProt A0A2K5VNI5 39-712)
T2 construct: Bought protein; also called cPTK7-His; ACRO Biosystems Cat# PT7-C52H3; not shown: His tag
T2 sequence: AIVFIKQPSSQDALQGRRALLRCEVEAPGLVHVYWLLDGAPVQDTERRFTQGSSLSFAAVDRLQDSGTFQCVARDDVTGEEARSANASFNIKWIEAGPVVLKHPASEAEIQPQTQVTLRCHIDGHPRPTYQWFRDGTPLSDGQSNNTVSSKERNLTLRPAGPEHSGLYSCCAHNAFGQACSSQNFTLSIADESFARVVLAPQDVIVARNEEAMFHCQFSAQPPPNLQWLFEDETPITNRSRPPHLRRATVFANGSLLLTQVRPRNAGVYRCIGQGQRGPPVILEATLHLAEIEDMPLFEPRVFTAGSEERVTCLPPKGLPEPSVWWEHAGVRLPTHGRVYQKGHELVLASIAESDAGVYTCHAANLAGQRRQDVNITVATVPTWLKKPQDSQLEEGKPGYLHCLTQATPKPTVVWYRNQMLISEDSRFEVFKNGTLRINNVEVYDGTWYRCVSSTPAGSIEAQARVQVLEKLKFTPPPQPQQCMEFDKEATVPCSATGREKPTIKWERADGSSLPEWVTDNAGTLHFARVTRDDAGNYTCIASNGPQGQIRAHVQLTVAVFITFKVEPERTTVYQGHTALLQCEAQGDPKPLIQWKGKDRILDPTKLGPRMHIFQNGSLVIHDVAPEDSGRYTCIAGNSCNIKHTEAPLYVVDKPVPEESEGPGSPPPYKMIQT

T3: human PTK7 on human cancer cell lines (human, UniProt Q13308 31-1070)
T3 construct: Endogenous PTK7 of human tumour cell lines; also called PTK7 on A-431, NCI-H520, NCI-N87, SK-OV-3, BT-20, HCC1954, NCI-H226, NCI-H358, HCT116, PC-3, NCI-H292, NCI-H1975 cells
T3 sequence: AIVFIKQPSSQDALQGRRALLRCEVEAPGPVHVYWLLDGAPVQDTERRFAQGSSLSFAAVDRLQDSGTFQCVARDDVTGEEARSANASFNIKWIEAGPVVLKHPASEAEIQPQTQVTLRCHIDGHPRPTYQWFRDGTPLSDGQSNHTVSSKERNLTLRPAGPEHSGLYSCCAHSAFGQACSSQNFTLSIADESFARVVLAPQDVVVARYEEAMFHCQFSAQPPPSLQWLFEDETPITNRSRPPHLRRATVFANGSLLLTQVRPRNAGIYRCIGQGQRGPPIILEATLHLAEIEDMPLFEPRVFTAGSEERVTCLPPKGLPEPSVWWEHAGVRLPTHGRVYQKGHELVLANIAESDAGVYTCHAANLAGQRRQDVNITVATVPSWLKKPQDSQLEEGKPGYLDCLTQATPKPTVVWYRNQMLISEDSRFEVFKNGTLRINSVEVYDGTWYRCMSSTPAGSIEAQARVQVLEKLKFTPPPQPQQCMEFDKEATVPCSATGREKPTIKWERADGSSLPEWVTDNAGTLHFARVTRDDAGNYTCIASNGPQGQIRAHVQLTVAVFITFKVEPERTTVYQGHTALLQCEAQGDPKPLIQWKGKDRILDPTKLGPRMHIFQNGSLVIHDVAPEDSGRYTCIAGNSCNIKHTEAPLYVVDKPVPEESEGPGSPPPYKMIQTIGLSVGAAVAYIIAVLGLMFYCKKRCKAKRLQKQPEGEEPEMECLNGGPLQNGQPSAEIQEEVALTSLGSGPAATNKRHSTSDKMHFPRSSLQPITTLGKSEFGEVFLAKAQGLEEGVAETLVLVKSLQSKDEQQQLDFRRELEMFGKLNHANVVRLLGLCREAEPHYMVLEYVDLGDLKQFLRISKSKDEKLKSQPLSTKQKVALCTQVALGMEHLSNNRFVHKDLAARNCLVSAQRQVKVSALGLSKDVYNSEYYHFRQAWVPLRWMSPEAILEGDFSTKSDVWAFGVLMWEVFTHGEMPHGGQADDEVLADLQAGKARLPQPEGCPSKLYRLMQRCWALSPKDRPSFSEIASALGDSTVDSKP

B1: 1A11 (antibody, V domains shown)
VH: QVQLVQSGPGLVKPSETLSLTCTVSGGSINSYYWNWIRQPPGKGLEWIGYIYYSGSTNYNPSLKSRVTISVDTSKNQFSLKLSSVTAADTAVYYCARDPHDYIRGHFDLWGRGTLFTVSS
VL: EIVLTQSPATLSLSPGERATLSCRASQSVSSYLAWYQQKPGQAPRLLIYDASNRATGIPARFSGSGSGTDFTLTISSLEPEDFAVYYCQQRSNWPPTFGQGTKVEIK
notes: also called anti-PTK7 antibody 1A11
B2: 3C4 (antibody, V domains shown)
VH: QVQLEQSRAEVKKPGESLRISCKGSGYSFTSYWISWVRQMPGKGLEWMGRIDPSDSYTNYNPSFQGHVTISADKSISTAYLQWSSLKASDTAMYYCARRDGSYFDFDYWGQGTLVTVSS
VL: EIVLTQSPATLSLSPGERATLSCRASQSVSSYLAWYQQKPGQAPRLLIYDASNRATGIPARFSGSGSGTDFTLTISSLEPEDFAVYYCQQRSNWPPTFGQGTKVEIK
notes: also called anti-PTK7 antibody 3C4
B3: 3E6 (antibody, V domains shown)
VH: B2 VH with E5V, Q6E, R8G, K23R, N59K, N61S, S102D
VL: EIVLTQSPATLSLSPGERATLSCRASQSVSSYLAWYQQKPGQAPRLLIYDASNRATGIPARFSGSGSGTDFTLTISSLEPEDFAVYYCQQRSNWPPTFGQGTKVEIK
notes: also called anti-PTK7 antibody 3E6
B4: 1F2 (antibody, V domains shown)
VH: QVQLVQSGGGLVQPGGSLRLSCAASGFTFSRYEMNWVRQAPGKGLEWVSYINSIGSAINYADSVKGRFTISRDNAKNSLYLQMRSLRAEDTAVYYCVREDNWNPGYWGQGTLVTVSS
VL: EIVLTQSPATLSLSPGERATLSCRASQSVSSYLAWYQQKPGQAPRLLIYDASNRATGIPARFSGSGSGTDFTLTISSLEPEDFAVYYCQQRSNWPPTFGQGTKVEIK
notes: also called anti-PTK7 antibody 1F2
B5: 1A7 (antibody, human IgG1, V domains shown)
VH: QVQLVESGGGVVQPGRSLRLSCAASGFTFSNYGMHWVRQAPGKGLEWVAVIYYDGSNKFYADSVKGRFTISRDNSKNTLYLQMSSLRAEDTAVYYCARDVAPPGSRAEYFHHWGQGTLVTVSS
VL: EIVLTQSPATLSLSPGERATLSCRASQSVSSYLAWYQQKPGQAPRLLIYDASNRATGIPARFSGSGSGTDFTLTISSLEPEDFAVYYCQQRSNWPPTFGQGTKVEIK
notes: also called anti-PTK7 antibody 1A7
B6: 2A5 (antibody, V domains shown)
VH: B5 VH with E6Q, Y52W, S56R, F59Y, S84N, P103A, H111Q, H112N
VL: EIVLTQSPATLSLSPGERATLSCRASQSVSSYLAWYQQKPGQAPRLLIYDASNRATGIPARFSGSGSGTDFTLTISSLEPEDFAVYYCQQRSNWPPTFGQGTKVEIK
notes: also called anti-PTK7 antibody 2A5
B7: 2D11 (antibody, V domains shown)
VH: B5 VH with N31S, Y52F, F59Y, S84N, A92S, P102A, H111Q, H112N
VL: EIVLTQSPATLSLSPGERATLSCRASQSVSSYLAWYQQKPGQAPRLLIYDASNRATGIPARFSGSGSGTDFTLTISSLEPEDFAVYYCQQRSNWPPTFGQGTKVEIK
notes: also called anti-PTK7 antibody 2D11
B8: 2F5 (antibody, V domains shown)
VH: B5 VH with A23V, V50I, F59Y, S84N, P102A, P103A, F110L
VL: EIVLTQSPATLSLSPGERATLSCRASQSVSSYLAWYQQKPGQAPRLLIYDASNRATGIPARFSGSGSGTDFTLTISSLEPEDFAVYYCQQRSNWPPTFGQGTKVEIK
notes: also called anti-PTK7 antibody 2F5

Changes are numbered by the printed parent chain.

One assay deals with T1, His-tagged human PTK7 protein. As to the kind of experiment: SPR Biacore 8K, Ab on Protein A chip. As to the method: (§1) Purified anti-PTK7 antibodies were diluted to 1 μg/mL and then injected into the Biacore™ 8K biosensor at 10 μL/min for about 50 seconds to achieve a desired protein density (e.g., about 50 response units (RU)). The His-tagged PTK7 protein at a concentration of 200 nM or 0 nM was then injected at 30 μL/min for 180 seconds. Dissociation was monitored for 400 seconds. The chip was regenerated after the last injection of each titration with glycine (pH 2.0, 30 μL/min for 30 seconds).
For orientation: In SPR one partner is held on a chip, and binding of the other changes the refractive index at the surface.
In general, Kd refers to a measure of binding affinity in units of concentration. A word on the koff: it is a measure of how fast the partners let go of each other. In general, kon refers to a measure of how fast the partners come together. The molecule B1 registered a Kd of 41 nM, a koff of 0.00318 s⁻¹ and a kon of 77600 M⁻¹ s⁻¹.

In turn, B2 returned a dissociation constant Kd of 25.4 nM, a koff of 0.00237 s⁻¹ and a kon of 93200 M⁻¹ s⁻¹.

In the case of B3, the Kd was found to be 3.44 nM, the koff is 0.000454 s⁻¹ and the kon turned out to be 132000 M⁻¹ s⁻¹.

B4 displayed a Kd of 69.8 nM, a koff of 0.012 s⁻¹ and a kon of 172000 M⁻¹ s⁻¹.

The molecule B5 showed a Kd of 40.9 nM, a koff of 0.00425 s⁻¹ and a kon of 104000 M⁻¹ s⁻¹.

In the case of B6, the Kd turned out to be 25.9 nM, the koff was 0.00281 s⁻¹ and the kon was determined as 108000 M⁻¹ s⁻¹.

Consider B7, for which the Kd came out at 8.11 nM, the koff is 0.000249 s⁻¹ and the kon was found to be 30600 M⁻¹ s⁻¹.

On to B8, for which the affinity, expressed as Kd, was 109 nM; the koff was determined as 0.00388 s⁻¹; the association rate constant (kon) turned out to be 35600 M⁻¹ s⁻¹.

In the next assay the target is T2, His-tagged cynomolgus monkey PTK7 …. As to the kind of experiment: SPR Biacore 8K, Ab on Protein A chip. As to the method:
as §1
B1 showed a Kd of 18.4 nM, an off-rate (koff) of 0.00131 s⁻¹ and a kon of 71200 M⁻¹ s⁻¹.

In turn, B2 came in with a Kd of 23.2 nM, an off-rate (koff) of 0.00187 s⁻¹ and a kon of 80600 M⁻¹ s⁻¹.

Turning to B3, the Kd was 3.95 nM, the koff was 0.000481 s⁻¹ and the kon is 122000 M⁻¹ s⁻¹.

B4 displayed a Kd of 30.2 nM, a koff of 0.00949 s⁻¹ and a kon of 314000 M⁻¹ s⁻¹.

Molecule B5 showed a Kd of 17.9 nM, a koff of 0.000733 s⁻¹ and a kon of 41100 M⁻¹ s⁻¹.

Molecule B6 returned a dissociation constant (Kd) of 10.8 nM, a koff of 0.000439 s⁻¹ and a kon of 40700 M⁻¹ s⁻¹.

The molecule B7 yielded a dissociation constant Kd of 3.08 nM, a koff of 0.000177 s⁻¹ and a kon of 57400 M⁻¹ s⁻¹.

Molecule B8 displayed a Kd of 35.2 nM, a koff of 0.00146 s⁻¹ and an on-rate (kon) of 41600 M⁻¹ s⁻¹.

The target in the next assay is T3, human PTK7 on human cancer cell lines. As to the kind of experiment: flow cytometry, NCI-H226 cells, Ab 5 ug/mL. As to the method:
The binding activity of anti-PTK7 antibodies to cancer cell lines was verified by flow cytometry. […] Purified anti-PTK7 antibody with a concentration of 5 μg/mL was added to each well and was incubated at 4° C. for 30 minutes. […] The cells were collected, and the mean fluorescence intensity (MFI) was determined. Human IgG1 was used as ISO control.
As to B1, the MFI came to 152000.

Molecule B2 displayed an MFI of 167000.

B3 registered an MFI of 193000.

Molecule B4 displayed an MFI of 94900.

For B5, the MFI came out at 80200.

For B6, the MFI came to 141000.

The molecule B7 yielded an MFI of 180000.

In turn, B8 returned an MFI of 80900.
